From patent US20260297194 (published 2026)

What was measured:
human CD3 [1] = target: T1, human CD3 (human, UniProt P07766); experiment: SPR
T1 chain: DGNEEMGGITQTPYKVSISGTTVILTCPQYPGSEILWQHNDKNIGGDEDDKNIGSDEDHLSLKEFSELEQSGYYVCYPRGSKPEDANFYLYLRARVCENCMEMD

human CD3 [2] = target: T1, human CD3; experiment: FACS, Jurkat cells
cynomolgus CD3 = target: T2, cynomolgus CD3 (cynomolgus monkey, UniProt Q95LI5); experiment: SPR
T2 chain: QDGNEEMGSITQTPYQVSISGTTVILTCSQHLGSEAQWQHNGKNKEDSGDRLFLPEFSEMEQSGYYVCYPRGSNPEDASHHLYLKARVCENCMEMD

human GPRC5A = human GPRC5A (human, UniProt Q8NFJ5); experiment: FACS, human GPRC5A-CHOK1 cells
human GPRC5D [3] = target: T3, human GPRC5D (human, UniProt Q9NZD1); experiment: FACS, human GPRC5D-CHOK1 cells
T3 chain: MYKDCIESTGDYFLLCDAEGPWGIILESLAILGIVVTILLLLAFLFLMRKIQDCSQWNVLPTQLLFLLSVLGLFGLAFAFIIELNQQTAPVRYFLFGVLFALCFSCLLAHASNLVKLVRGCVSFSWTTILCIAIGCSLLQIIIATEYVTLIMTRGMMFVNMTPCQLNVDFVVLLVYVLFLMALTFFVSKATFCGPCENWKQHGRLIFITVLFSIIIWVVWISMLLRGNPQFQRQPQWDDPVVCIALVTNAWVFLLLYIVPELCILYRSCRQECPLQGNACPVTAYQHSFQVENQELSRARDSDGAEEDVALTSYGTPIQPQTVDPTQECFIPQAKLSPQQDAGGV

human GPRC5D [4] = target: T3, human GPRC5D; experiment: FACS, RPMI8226 cells
human GPRC5D [5] = target: T3, human GPRC5D; experiment: FACS, NCI-H929 cells
human GPRC5D [6] = target: T3, human GPRC5D; experiment: FACS, NCI-H929 cells
human GPRC5D [7] = target: T3, human GPRC5D; experiment: FACS, human GPRC5D-CHOK1 cells

Sequence of human GPRC5A (Q8NFJ5 whole entry): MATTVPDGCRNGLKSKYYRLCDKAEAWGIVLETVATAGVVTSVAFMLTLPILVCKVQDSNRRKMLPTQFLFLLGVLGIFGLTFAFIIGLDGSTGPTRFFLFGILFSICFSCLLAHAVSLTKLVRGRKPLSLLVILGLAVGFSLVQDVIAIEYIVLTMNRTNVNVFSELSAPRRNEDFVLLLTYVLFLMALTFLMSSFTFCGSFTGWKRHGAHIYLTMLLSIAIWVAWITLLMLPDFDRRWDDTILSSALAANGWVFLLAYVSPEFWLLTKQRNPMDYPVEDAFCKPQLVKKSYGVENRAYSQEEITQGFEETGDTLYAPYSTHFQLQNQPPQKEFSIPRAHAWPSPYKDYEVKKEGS

B1: Bispecific antibody 1 (CD3 arm) (antibody, V domains shown)
VH: EVKLVESGGGLVQPGGSLKLSCAASGFTFNTYAMNWVRQAPGKGLEWVARIRSKYNNYATYYADSVKDRFTISRDDAKNTLYLQMNNLRTEDTAVYYCVRHGNFGNSYVSWFAYWGQGTLVTVSS
VL: QAVVTQEPSLTVSPGGTVTLTCRSSTGAVTTSNYANWVQQKPGQAPRGLIGGTNKRAPGTPARFSGSLLGGKAALTLSGAQPEDEAEYYCALWYSNLWVFGGGTKLTVL
modifications: Acro CDD-H52W1 for SPR; native CD3 on Jurkat cells for FACS
- Kd (human CD3 [1]): 20 nM
- EC50 (human CD3 [2]): 22.1 nM

B2: Bispecific antibody 2 (CD3 arm) (antibody, V domains shown)
VH: EVKLVESGGGLVQPGGSLKLSCAASGFTFNTYAMNWVRQAPGKGLEWVARIRSKYNNYATYYADSVKDRFTISRDDAKNTLYLQMNNLRTEDTAVYYCVRHGNFGNSYVSWFAYWGQGTLVTVSS
VL: QAVVTQEPSLTVSPGGTVTLTCRSSTGAVTTSNYANWVQQKPGQAPRGLIGGTNKRAPGTPARFSGSLLGGKAALTLSGAQPEDEAEYYCALWYSNLWVFGGGTKLTVL
modifications: Acro CDD-H52W1 for SPR; native CD3 on Jurkat cells for FACS
- Kd (human CD3 [1]): 18.1 nM
- EC50 (human CD3 [2]): 12.9 nM

B3: Bispecific antibody 1 (CD3 arm) (antibody, V domains shown)
VH: EVKLVESGGGLVQPGGSLKLSCAASGFTFNTYAMNWVRQAPGKGLEWVARIRSKYNNYATYYADSVKDRFTISRDDAKNTLYLQMNNLRTEDTAVYYCVRHGNFGNSYVSWFAYWGQGTLVTVSS
VL: QAVVTQEPSLTVSPGGTVTLTCRSSTGAVTTSNYANWVQQKPGQAPRGLIGGTNKRAPGTPARFSGSLLGGKAALTLSGAQPEDEAEYYCALWYSNLWVFGGGTKLTVL
modifications: Acro CDD-C52W4
- Kd (cynomolgus CD3): 16.8 nM

B4: Bispecific antibody 2 (CD3 arm) (antibody, V domains shown)
VH: EVKLVESGGGLVQPGGSLKLSCAASGFTFNTYAMNWVRQAPGKGLEWVARIRSKYNNYATYYADSVKDRFTISRDDAKNTLYLQMNNLRTEDTAVYYCVRHGNFGNSYVSWFAYWGQGTLVTVSS
VL: QAVVTQEPSLTVSPGGTVTLTCRSSTGAVTTSNYANWVQQKPGQAPRGLIGGTNKRAPGTPARFSGSLLGGKAALTLSGAQPEDEAEYYCALWYSNLWVFGGGTKLTVL
modifications: Acro CDD-C52W4
- Kd (cynomolgus CD3): 18.9 nM

B5: 18CH-16 chimeric (antibody, V domains shown)
VH: EVQLQQSGPELVKPGASVKMSCKASGYTFTSYIIHWVKQKPGQGLEWIGYINPYNDGTKYNEKFKGKATLTSDRSSSTAYMEVSSLTSEDSAVYYCARGGIRAFMNYWGQGTSVTVSS
VL: DIVMTQSHKFMSTSVGDRVSITCKASQDVGTAVAWYQQKPGQSPKLLIYWASTRHTGVPDRFTGSGSGTDFTLSISNVQSEDLADYFCQHYISWTFGGGTNLEIK
- binding result (human GPRC5A): no binding
- EC50 (human GPRC5D [3]): 3.89 nM

B6: Bispecific antibody 1 (GPRC5D arm) (antibody, V domains shown)
VH: QVQLVQSGAEVKKPGASVKVSCKASGYTFTSYIIHWVRQAPGQGLEWIGYINPYNDGTKYNEKFKGRVTMTSDTSTSTVYMELSSLRSEDTAVYYCARGGIRAFMNYWGQGTLVTVSS
VL: DIQMTQSPSSLSASVGDRVTITCKASQDVGTAVAWYQQKPGKAPKLLIYWASTRHTGVPSRFSGSGSGTDFTLTISSLQPEDFATYYCQHYISWTFGQGTKVEIK
- EC50 (human GPRC5D [4]): 7.48 nM
- EC50 (human GPRC5D [5]): 1.07 nM

B7: Bispecific antibody 2 (GPRC5D arm) (antibody, V domains shown)
VH: QVQLVQSGAEVKKPGASVKVSCKASGYTFTSYIIHWVRQAPGQGLEWIGYINPYNDGTKYNEKFKGRVTMTSDTSTSTVYMELSSLRSEDTAVYYCARGGIRAFMNYWGQGTLVTVSS
VL: DIQMTQSPSSLSASVGDRVTITCKASQDVGTAVAWYQQKPGKAPKLLIYWASTRHTGVPSRFSGSGSGTDFTLTISSLQPEDFATYYCQHYISWTFGQGTKVEIK
- EC50 (human GPRC5D [4]): 22.9 nM
- EC50 (human GPRC5D [5]): 5.19 nM

B8: 18CH16H2L1 (antibody, V domains shown)
VH: QVQLVQSGAEVKKPGASVKVSCKASGYTFTSYIIHWVRQAPGQGLEWIGYINPYNDGTKYNEKFKGRVTMTSDTSTSTVYMELSSLRSEDTAVYYCARGGIRAFMNYWGQGTLVTVSS
VL: DIQMTQSPSSLSASVGDRVTITCKASQDVGTAVAWYQQKPGKAPKLLIYWASTRHTGVPSRFSGSGSGTDFTLTISSLQPEDFATYYCQHYISWTFGQGTKVEIK
- EC50 (human GPRC5D [6]): 0.3 nM
- EC50 (human GPRC5D [7]): 0.51 nM
